Test: soluble on expression in E. coli; label from the status in PepcDB or PDB records

Sequence | soluble on expression in E. coli
MEVSHVTLEPNKDSRPAVLTIGKFDGVHLGHQTILNTALSIKKENEILTAISFSPHPLWALKQIEIYREMLTPRMEKERWLAHYGVDHLIETAFTPRYAETTPEEFVTDHLSNLQLSHIIVGSEFNFGKGRDSDVDLLRDLCKPYGIGVTSVPVIETNQTKISSTNIRAFIRRGHFLEAEQLLGHP | not soluble
MMTQIIHTEKAPAAIGPYVQAVDLGNLVLTSGQIPVNPATGEVPADIVAQARQSLENVKAIIEKAGLTAADIVKTTVFVKDLNDFAAVNAEYERFFKENNHPNFPARSCVEVARLPKDVGLEIEAIAVRK | soluble
MKKILLMLSLLFFTTAGFSEVSDTLVTGGYDKQAMSDAIKHARKETDKFIEVMNKKDADTFAVKAPITDHGRTEHFWLTDVTYSNGMFIGVISNDPGIVTNVEYGQEWKIKKEDISDWMYTRGDKIYGGYTIDPLLVTYPKEEADELRAKLVR | soluble
MGSDKIHHHHHHMPAISVQDVSKRFRVFAKPADRLKAAVRHRIGGLAKLVPARLLGTEGASEFHALQHVSFHVQKGETIGIIGRNGSGKSTLLQIICGTLTPSGGRVAINGRVAALLELGAGFNPEFTGRENVYMNAALLGLSKAQIEERLDAIFAFADIGGFVDQPVKTYSSGMYVRLAFAVIAHVDADVLVIDEALAVGDAFFTQKCMRFLRAFMERGTVLFVSHDTNAVVNLCTRVVWLDKGRVREIGPAKDVCDSYLEAFYEEQHCASGRSVRALERSSVVRAIAEGDMRDQRALLINASKLRNDVELFQFTADAKNFGLGGASIEHVGIEDGTGAPLNWVVGGEIVCIRIAVKALQNLERAIVGFIVRDRLGQNLFGDNTYLTTLNEPFAVAAGESFSVRFGFRMPVLPVGDYSVTVAVADGSQSDHVIHQWLHDAVLLKSHSTSVSTGLIGIPMHEIVLERDTLNEVGAAQ | not soluble
MGSDKIHHHHHHMGTRLDILMIHSNLPLLNMLWAHITDELERLDKMLNRFDATSEVSKLNSHTQQDSVSVSAELEDILRSCQYYYEKTLHLFDITLNDFSQIQIHGNHHISFSNFSVTLDFGGFAKGYALKKIQEILLRGNIENAFVDFGNSSIMGIGHHPYGDCWKVSLQNPYTQQTLDEFCLTDNTLSTSGNTEQYTGHIINPLTGIYNEQKKVTSILSDNPLDAEILSTVWMIADDQQREQINENFKHIKGTIYTL | not soluble
MSYGDGLSGAEYLASIYGTEKDKVNCSFFFKTGACRHGDKCSRAHHTPTFSPTVVLKNFYHNPVVDVRQADAFDKVGKRNDQEQRYFDDFYEEVFVEMERKYGEVEEINVCENIGEHMVGNVYVKFMKEEDAEKAKNDLNNRWFNGQPIYAELCPVTDFRESRCRQHEVTTCSKGGFCNFMHLKAISAELGDRLYGRRGRRADAAGHYPSQRGGSGGGGGGGGGGGYGSGGGWGGGGGGRDRDRGGWGGGGGGRGYGGGGGGGGYGYGGGGGGRRRSRSRDRRRY | not soluble
EDMKGKIRVYCRLRPLCEKEIIAKERNAIRSVDEFTVEHLWKDDKAKQHMYDRVFDGNATQDDVFEDTKYLVQSAVDGYNVCIFAYGQTGSGKTFTIYGADSNPGLTPRAMSELFRIMKKDSNKFSFSLKAYMVELYQDTLVDLLLPKQAKRLKLDIKKDSKGMVSVENVTVVSISTYEELKTIIQRGSEQRHTTGTLMNEQSSRSHLIVSVIIESTNLQTQAIARGKLSFVDLAGSERVKKSGSAGNQLKEAQSINKSLSALGDVISALSSGNQHIPYRNHKLTMLMSDSLGGNAKTLMFVNISPAESNLDETHNSLTYASRVRSIVNDPSKNVSSKEVARLKKLVSYWKEQAGRKGDDEELEEIQDE | soluble
MSLVQWISPLDNSIVIASKVKILRNIKGIKFTKLLNEEEFNDLLSMVLGRLKEIDILDKCYVVKLKDGEEKIIDYYKENFGLIKYFENKDNLIFIMNKNGEFNILLNEEEHIGIECTNSGLSLREVYSKVDNLDDLIEEKIHYSFDSELGYLTSNIKNLGTALRAKVFIHLPLLSSNNLIRIIKNALKEEGITLKSIYNSGNKDVGNIYEVSNIKTLGMSEKDILDSLISITNKLILREKNQRDNLSKDEYIELKDDILRSLGVLRNTYSIDREGHHHHHH | not soluble
MAGAMRKMAVYLGLVEDDGYDGRGFDPDDDFEPELDPEPERDHRRHEPAHQSHGAHQSQRDEEVRVVQPPAQREPMPRAASLAAESSRPARIAPVASITQERASLEKSAPVIMPKVVSEREPYRITTLHPRTYNEARTIGEHFREGTPVIMNLTEMDDTDAKRLVDFAAGLVFGLHGSIERVTQKVFLLSPANVDVTAEDKARIAEGGFFNQSLEHHHHHH | not soluble
MVPITHQNLIEMMTYALVLSGNRVITSGATGTNSAAIKGAMRADPNLLTVILPQSLERQPQESRQQLEQVMHLVENPSNDNLSLAEASYLCNKEIVSRCQQLICFAFHDSRTLLQTCGDAEEQRKVVTLFYFDLEHHHHHH | not soluble
MIFGRTERGKPPVEPVTLKILVAGGFGVGKTTLVGAVSEIRPLRTEEVLTEAGRPVDDISGVEGKHTTTVAMDFGRITLREDLVLYLFGTPGQDRFWFLWDELATGALGAVVLADTRRLEDCFAAVDYFERRSIPFVMGVNCFEEAARYPVEDVRRALDLDDDVPVVLCDARDRESVKEVLIDVVRHAMAHAAERRETVSGLEHHHHHH | not soluble
LLQTMLSMTSHGPAQVFTERYQLIVQPLGLSQQVEKDSLDLLADYLHGFALSISCCHDASLIKTDMLDGPLKLICSSLLASRT | not soluble
LFTPHWIVRYLVENSLGRLWMLNRPESSLVDRMEYYIKPEKQETDFLKINSPEEIKICDPACGSGHMLVYAFDLLYAIYEEEGYTPSEIPEMILTHNLFGIEIDKRAGELAGFALAMKARGKDRRFFNKQVHPNICMLENVAFEQGELNDYIETVGRELFTNAHRATLLQFAEADNFGSLIRPVAKDISDLLHLLESKNLSGNLSLLSTHQKVLKALKQADYLSPKYHVVVANPPYMGGKGMNNRLKTFAQDNYPDSKSDTFAMFIERNLDLAVKKGMVAMITMQSWMFLSSFEKLRENILSNDTILSMAHFGARAFDSIGGEVVSTTAFVLENAQHPDYKGSYLRLVDGN | not soluble
MLRTICKQHTALPDKSIRKLEKIAEGLTVLSKLLKADIFIDCPTGINDAAIVVAEANPETGSSYTQSVVGQYAYRKNEPAVLRTLETGLPSRDYKALTQENTLVRQNVVPIKNEKEEVIGVLIVEEGSNDTGLNKELNFLHDATNELLRSSMEMTKEQKIIDYINDGIIIFNEKGILIYANSKAKNIYKKIGYKHNILGTKFSNIVLNNIAFKDVLDGIIPGSSDIHIAKMDLNIHYYLIKESKNVKNVVLFIKDLTEIKEKEKELILKSVAIKEIHHRVKNNLQTIASLLRIQARKTEDEAVRQAFNESINRILSIAVTHEILAQNGLDDLKIKEMFSKILKNSIRASIGENLDLKTSISGDDFKINSDKSTSIALIANELVQNSITHGFKGMTSGKIDITVKQGKIKSKVTIADNGVGFKSKDFKNESLGLQIVKSLVKEKLFGTIDIKSTKNGTIIVFDFEN | not soluble
MSAAGVRSTRQRAAISTLLETLDDFRSAQELHDELRRRGENIGLTTVYRTLQSMASSGLVDTLHTDTGESVYRRCSEHHHHHLVCRSCGSTIEVGDHEVEAWAAEVATKHGFSDVSHTIEIFGTCSDCRS | soluble
VEQIMIQGTASDAGKSVIVAGLCRLFKNKGKRVVPFKSQNMSLNSFITATGDEMGRAQVFQAEAAGVFPDVRMNPVLLKPTNDRQSQVIFMGAILDNMDAVSYHDFKQTLIPKIQAVYQSLADENDIIVLEGAGSPAEINLNDRDIVNMGMAKMVDAPVVLVADIDKGGVFASIYGTIMLLKEEERARLKGVIINKFRGDVALLQPGIEMIEELTNVPVIGVIPYANLQL | not soluble
MLLKSHHSGGRKTRFLTVLDVGSSKIVCLIACLRPLKHAHYLHGRTHSMEILGFGVQRSRGIKSGVVMDIFAAEQSIRLAVDAAEKMAGLVVDSVIVNFSSSRLQSALINGVVSLNGREVTKRDIRVAFADVSRKAFNAERHVVHSVPVSYVLDGDKGISDPVGMIGDFFGVDVHVVTAETAALRNLETCINRAHLSVEAMVVTPFASGLAVLMNDEAHLGAACIDFGGGTTTFSVFSEGKFVHANALAVGGHHVTLDVARGFSMSLPEAERLKVVYGSALVTSADERHMVNVTEIGNEHREIQYPRAVLGRIIRARVEEILEMVRDCLNRSGFGHIIGKRVILTGGASQLTGLPEMARTILGRNVRIGRPLGISRLPSLAKGAAFTSAVGLLIYPQLVGFEEKTMQVAVNHLSTGTRGYFQRVGQWLRESF | not soluble
MNLMTTITGVVLAGGKARRMGGVDKGLLELNGKPLWQHVADALMTQLSHVVVNANRHQEIYQASGLKVIEDSLADYPGPLAGMLSVMQQEAGEWFLFCPCDTPYIPPDLAARLNHQRKDAPVVWVHDGERDHPTIALVNRAIEPLLLEYLQAGERRVMVFMRLAGGHAVDFSDHKDAFVNVNTPEELARWQEKRSHHHHHH | soluble
MGVSGYGHDDLGRETLDKVFAEVMGAEAAAVRVQFVSGTHAIACALFGVLRPGDEMLAVVGSPYDTLEEVIGLRGQGQGSLIEFGIKYRQLELTSQGSIDWQTLSTSITDHTRLVLIQRSCGYSWRPSLSIADIEKVVNLVKQQNPHTVCFVDNCYGEFIETQEPTHVGADLMAGSLIKNPGGTIVTAGGYVAGRADLVEAAACRLTAPGIGSYGGATFLEHHHHHH | soluble
MAVRIRLAKFGRKHHPIYRIVVMDAKSPREGKYIDILGTYDPKRKVLINVYPEKVKEWVLKGVELSHRAKAILWNHGILKEVVPEGYEMKRVGDYYVFEKRESKKSKGGEAA | soluble

Reference: the DeepSol protein solubility set
